Source: patent publication US20090155239A1, “Novel Protease, Microorganism Producing the Same, and Application Thereof” (SODX CO., LTD., priority 2005, published 2009)
Read-outs that look alike come from different tables or passages of the source. Where a SMILES comes first, the peptide text is derived from it. [ ]: non-standard residue; d: D form. The star is where a group is joined. Sta = CC(C)C[C@H](N)[C@@H](O)CC(=O)O; Isovaleryl = CC(C)CC(=O)*

How the values were obtained:
[1] = tested on: protease of the present invention; assay type: biochemical, Fusarium sp. strain BLB; conditions: for Relative Activity (%): pH 5
[2] = substrate Suc-Ala-Ala-Pro-Leu-pNA; H-D-Ile-Pro-Arg-pNA taken as 100
mice = assay: Acute toxicity test on mice
[3] = substrate Gle-Phe-pNA; H-D-Ile-Pro-Arg-pNA taken as 100
Hammarsten casein = assay: Casein method; assay type: biochemical; conditions: final purified product of Example 2
Procedure: A 0.5 ml quantity of sample (protease solution) is added to 1.5 ml of Hammarsten casein solution, prepared using 100 mM boric acid buffer (pH 10) so as to have a final concentration of 1 wt. %, and a reaction is carried out at 37° C. for 10 minutes. The reaction is terminated by adding 2 ml of 0.44 M trichloroacetic acid solution. After allowing the reaction mixture to stand for 20 minutes, the precipitate is filtered off. Five milliliters of 0.44 M aqueous sodium carbonate solution and 1 ml of phenol reagent (containing, per 100 ml, 9.1 g of sodium tungstate dihydrate, 2.3 g of sodium molybdate dihydrate, 4.5 ml of phosphoric acid, 9.1 ml of hydrochloric acid, and 13.6 g of lithium sulfate) are added in that order. After allowing the resulting mixture to stand for 20 minutes, the absorbance at an absorption wavelength of 660 nm is measured. In the above measurement, the amount of enzyme that liberates, per minute, an acid-soluble protein hydrolysate corresponding to 1 μg of tyrosine is defined as 1 unit.

[4] = substrate Suc-Ala-Ala-Pro-Phe-pNA; H-D-Ile-Pro-Arg-pNA taken as 100
[5] = Synthetic substrate method, substrate specificity; assay type: biochemical; conditions: substrate Bz-L-Arg-pNA
[6] = substrate H-D-Val-Leu-Lys-pNA; H-D-Ile-Pro-Arg-pNA taken as 100
[7] = substrate H-D-Ile-Pro-Arg-pNA, taken as 100
fibrin = assay: Fibrin plate method; assay type: biochemical, bovine

In the case of Streptomyces pepsin inhibitor [SPI], the “Relative Activity (%)” value [1] is reported as 100%.

With `NCCCCCC(=O)O` [ε-ACA, ε-aminocaproic acid] the “Relative Activity (%)” value [1] was 100%.

In the case of `CC(C)CC(=O)N[C@H](C(=O)N[C@H](C(=O)N[C@@H](CC(C)C)[C@@H](O)CC(=O)N[C@@H](C)C(=O)N[C@@H](CC(C)C)[C@@H](O)CC(=O)O)C(C)C)C(C)C` [Pepstatin] (Isovaleryl-VV[Sta]A[Sta]-OH), the “Relative Activity (%)” value [1] is reported as 100%.

In the case of `c1cnc2c(c1)ccc1cccnc12` [Phenanthroline], the “Relative Activity (%)” value [1] is reported as 100%.

In the case of `c1ccc(-c2ccccn2)nc1` [2,2′-Bipyridyl], the “Relative Activity (%)” value [1] is reported as 97%.

For `CC(C)C[C@H](NC(=O)[C@H]1O[C@@H]1C(=O)O)C(=O)NCCCCN=C(N)N` [E-64, t-epoxysuccinyl-L-leucylamide(4-guanidino)butane], the “Relative Activity (%)” value [1] was 97%.

With `O=S(=O)(F)Cc1ccccc1` [PMSF, phenylmethylsulfonyl fluoride] the “inhibition of the protease (in words)” value [1] was “inhibited” and the “Relative Activity (%)” value [1] was 59%.

In the case of Chimostatin, the “Relative Activity (%)” value [1] is reported as 100%.

In the case of `O=C(O)CN(CCN(CC(=O)O)CC(=O)O)CC(=O)O` [EDTA, ethylenediaminetetraacetic acid], the “Relative Activity (%)” value [1] is reported as 100%.

B1: soybean trypsin inhibitor (protein)
chain: DFVLDNEGNPLENGGTYYILSDITAFGGIRAAPTGNERCPLTVVQSRNELDKGIGTIISSPYRIRFIAEGHPLSLKFDSFAVIMLCVGIPTEWSVVEDLPEGPAVKIGENKDAMDGWFRLERVSDDEFNNYKLVFCPQQAEDDKCGDIGISIDHDDGTRRLVVSKNKPLVVQFQKLDKESL
For B1, the “inhibition of the protease (in words)” value [1] was “not inhibited” and the “Relative Activity (%)” value [1] was 100%.

B2: protease of the present invention: novel trypsin-type serine protease from Fusarium sp. strain BLB, about 27000 on SDS-PAGE, amino acid sequence SEQ ID NO: 1 (protein, listed as Fusarium sp.)
chain: MVKFATIVALVAPLVAARPQDRPLIVGGTAASAGDFPFIVSISYQGGPWCGGTLLNANTVLTAAHCTSGRAASAFQVRAGSLNRNSGGVTSSVSSIRIHPSFSSSTLNNDVSILKLSTPIASSSTISYGRLAASGSDPAAGSSATVAGWGATAQGSPSSPVALRKVTIPIVSRATCRAQYGTSAITTNMFCAGLEEGGKDSCQGDSGGPIVDTSNTVIGIVSWGEGCAQPNFSGVYARVGTLRSYIDGQL
For B2, the “Relative Activity (%)” value [2] was 0%, the “safety in acute toxicity test” value (mice) was “demonstrated the safety” and the “Relative Activity (%)” value [3] was 0%. For the same molecule, the “protease activity by the casein method” value (Hammarsten casein) was 634 U/mg, the “Relative Activity (%)” value [4] was 0% and the “degrading activity on synthetic substrate (in words)” value [5] was “has degrading activity”. The “Relative Activity (%)” value ([5]; H-D-Ile-Pro-Arg-pNA taken as 100) was 2.8%, the “Relative Activity (%)” value [6] was 21% and the “Relative Activity (%)” value [7] was 100%. The “fibrinolytic activity (in words)” value (fibrin) was “strong fibrinolytic activity”.

B3: Streptomyces subtilisin inhibitor (protein)
chain: DAPSALYAPSALVLTVGKGVSATTAAPERAVTLTCAPGPSGTHPAAGSACADLAAVGGDLNALTRGEDVMCPMVYDPVLLTVDGVWQGKRVSYERVFSNECEMNAHGSSVFAF
In the case of B3, the “Relative Activity (%)” value [1] is reported as 100%.
